According to the supplement of paper PMC9170038:

Tested on: MS2 coat protein
Test: apparent KD of MS2 coat protein; higher = weaker reporter binding
Conditions: Eterna round: R107
Protocol: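 RNA-MaP round R107: designed RNA switches with theophylline, tryptophan, arginine or FMN aptamers are transcribed on-chip within common flanks. They are titrated with SNAP-549-labelled MS2 coat protein in RNA-MaP buffer (100 mM Tris pH 7.5, 80 mM KCl, 4 mM MgCl2), without ligand or with the indicated ligand. Median apparent KD per design.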

[1] = input ligand: theophylline 20 uM
[2] = input ligand: theophylline 2 mM
[3] = input ligand: tryptophan 2.4 mM

| Sequence | apparent KD of MS2 coat protein (input ligand: arginine 13.2 mM) [µM] | apparent KD of MS2 coat protein (input ligand: none) [µM] | apparent KD of MS2 coat protein [1] [µM] | apparent KD of MS2 coat protein [2] [µM] | apparent KD of MS2 coat protein [3] [µM] |
| --- | --- | --- | --- | --- | --- |
| CCGACGAUGACUAUGGGUCAGGAGUGCGUACGAGGACCGGUACGGCCGCCACUCGAGGAGUGGGACAUGAGGAUCACCCAUGUGG [#19 Exclusion Tryptophan A] | 0.0446 | 0.0502 | 0.0498 | 0.0548 | 0.0478 |
| GUACGAGUUGAAUGUGAGACUGGCGUGGAAGGAGCGCACGGAGGUGCAGGUAGGUCGCCACAUGAGGAUCACCCAUGUCGGCUAG [XARG-A 23] | 0.0221 | 0.0232 | 0.0273 | 0.029 | 0.0259 |
| AAAAUAUACGGAAGGAGCGUGUAAGAUUAAGAACAUGAGGAUCACCCAUGUUUUAAGGGAACACAGGUAGGUCGCCGUAUAUAAA [11.N] | 0.0129 | 0.0119 | 0.0116 | 0.0103 | 0.0118 |
| CACAUGAGGAUCACCCAUGUCUGAACUGAAGGAGCGCUAAAUAAGGCAGGUAGGUCGCGGAAUUUUGUGUGCAUAUGCAUAUGGG [9.M] | 0.0238 | 0.0268 | 0.0372 | 0.0342 | 0.0288 |
| ACAUGAGGAUCACCCAUGUAAAUCCUCGAUACCAGCCAAAGGAGAGGCCCUUGGCAGCGGAAAGGCCGGGUAUAAAUGUCCGGCC | 0.0716 |  | 0.151 |  | 0.125 |
| GUAUCUAUGUGAAAUAGAUAUAUAACUGAAGGAGCGUCAUUAAGGACAGGUAGGUCGCAGAGCACCUGAGGAUCACCCAGGUAGG [Arg A SS s1] | 0.027 | 0.0257 | 0.027 | 0.0316 | 0.0272 |
| UUCGUUUGCGGAAGGAGCGACGGACAUCGGUGACCCACGCACAUGAGGAUCACCCAUGUACGUCAGGUAGGUCGCCGCUAAGAGU [XArg-B4] | 0.0203 | 0.0174 | 0.0474 | 0.0413 | 0.0124 |
| UAUCCACAUGAGGAUCACCCAUGUAGGGAAGGAGCGGUGAUUUCACCAGGUAGGUCGCCUUACUGAGGAGAGCCGGUGGAAUCGU [Exclusion - Arginine A (Freestyle 31)] | 0.0223 | 0.0249 | 0.0319 | 0.0329 | 0.0316 |
| AACAUGAGGAUCACCCAUGUGUCCUCGAAACGAGGACCGGUACGGCCGCCACUCGAAAGGUGUUGACGAAAAGUCAGCACCAAAA [Mat - Exclusion - Trytophan A - D15] | 0.122 |  | 0.351 | 0.412 |  |
| UAUCUUGCGGGCGCCCGCAAGGUUGCGGAUACCAGCGAGAUAAAUCGCCCUUGGCAGCCGAACAUGAGGAUCACCCAUGUCGGAC [Same State - Theophylline A Attempt #1 (HarryS)] | 0.00794 |  | 0.0118 |  | 0.00987 |
| GUAUACAUGAGGAUCACCCAUGUACCAGAAGGAGCGCUGGAAACAGCAGGUAGGUCGCUGGUAGGUCCUCUAUCUAGACGUUCUA [EAA NP+V+V2 #5] | 0.0281 | 0.176 | 0.214 | 0.195 | 0.079 |
| AACAUGAGGAUCACCCAUGUCUGAACUGAAGGAGCGCUAAAUAAGGCAGGUAGGUCGCGGAAUUUUGUGUAUAUAUAUAUAUGGG [9.G] | 0.0176 | 0.0271 | 0.0342 | 0.025 | 0.0243 |
| UUGACAUGAGGAUCACCCAUGUAAACUGAAGGAGCGUCGAAAAUGACAGGUAGGUCGCAGAAUAAUAAAGGUGAUGGUAAAUAUU [Exclusion Arginine AGF1] | 0.0214 | 0.0223 | 0.0345 | 0.0296 | 0.0293 |
| AGACAUGAGGAUCACCCAUGUAGUACGGAUACCAGAUCCAGAUGUAUCCCUUGGCAGCUGUGGUACAGCGUUGCAACGCUCCUAG [Exclusion - Theophylline A (Freestyle 18)] | 0.015 |  | 0.0239 |  | 0.0152 |
| GGGACAUGAGGAUCACCCAUGUACCGGUCCCGAGGACCGGUACGGCCGCCACUCGAUGACCUCAUAGUCUACUUGAGCAGUAGAC [Geeson] | 0.0377 | 0.0221 | 0.143 | 0.0386 | 0.1 |
| GGGAAAGGAGAAGAUACCAGCCGCCUCACAAGUCUACACUACAUGAGGAUCACCCAUGUGGGCCCUUGGCAGCUUGACCGCGAAA [theeternabot_exclusion_MS2_Theo_B_20] | 0.0232 | 0.0274 | 0.0477 | 0.042 | 0.0393 |
| GAAUAUUACAUGAGGAUCACCCAUGUAGAUACCAGCCUUGAUUGUGGCCCUUGGCAGCUACGCCGUGAAUGCCUCAGUUGCUUAC [Atidi] | 0.0368 |  | 0.121 |  | 0.072 |
| AAACGUUGCUGCGAUACCAGACAUGAGGAUCACCCAUGUACCAAGGUACGAAUAUAACAUGUCCCUUGGCAGCGCAGCAACGAAA [MAT - Exclusion Theophlline B - Mod of Eli - D7] | 0.0175 |  | 0.0227 |  | 0.0136 |
| UGUAACAUGAGGAUCACCCAUGUGAGUGAUACCAGAUUAGUAUUAGUCCCUUGGCAGCACGUUGGGCGAGUGUAUAGUCUAUGCG [Same State - Theophylline A (Freestyle 13)] | 0.0909 |  | 0.162 |  |  |

| Sequence | apparent KD of MS2 coat protein (input ligand: arginine 13.2 mM) [µM] | apparent KD of MS2 coat protein (input ligand: none) [µM] | apparent KD of MS2 coat protein [1] [µM] | apparent KD of MS2 coat protein [2] [µM] | apparent KD of MS2 coat protein [3] [µM] |
| --- | --- | --- | --- | --- | --- |
| GAUGAUAUUGCAGAUACCAGACACAUGAGGAUCACCCAUGUCGUUGGGUCGCUGGGUCGUGUCCCUUGGCAGCUGCGAUAUCAUC [#04 Exclusion-TheophyllineB] | 0.028 |  | 0.0526 |  | 0.031 |
| ACUAGGCUCGGAAACGAGCCUAGGACAGAAGGAGCGUGGAUUAACACAGGUAGGUCGCUGACAUGAGGAUCACCCAUGUAUUAUU [SSAA #2] | 0.0245 | 0.0249 | 0.0386 | 0.0253 | 0.0289 |
| GCUAGGUCUACGGCCGCCACUAGACGUGGGUAAGACAUGAGGAUCACCCAUGUACUACAGGCGGAUAGGACCGGGUAGACCUAGC [SSTB NP+V+V2 #13 +-Same Structure] | 0.0693 |  | 0.159 | 0.101 |  |
| UGACAUUGCUCAGAUACCAGACAUGAGGAUCACCCAUGUACCAAGGUACGAAAAUAACAUGUCCCUUGGCAGCUGAGCAAUGUCU [First try 2 #MS2Left #Theo2] | 0.0167 |  | 0.0276 |  | 0.0124 |
| AUACAUGAGGAUCACCCAUGUUAUAGUGAAGGAGCGACAUUUAGGUCAGGUAGGUCGCACUAUAGUAUUAUAAUUCUUAGUUCUU [JR_ExcArginiA_Sub018] | 0.0147 | 0.0184 | 0.0279 | 0.0218 | 0.022 |
| AGAUUACAUGUUUUAAUAAGAUAAACUGAUACCAGUGUAUAUAUUCACCCUUGGCAGCAGCAACAUGAGGAUCACCCAUGUAUUA [JR_SSTheophyA_Sub015] | 0.0144 |  | 0.0187 |  | 0.0167 |
| CCUAUAUAGUCGGCCGCCACUGACUACAUGAGGAUCACCCAUGUAACACGAACAUGGUCCUGGAUCAGGACCGGGACUAUAUAGG [Tryp B Ex t5] | 0.0165 | 0.0207 | 0.0242 | 0.0222 | 0.122 |
| CAUGCGGCUAGUGAGCGUGGUGAGUAAAGGCGAGGACCGGUACGGCCGCCACUCGAGGCAAGACAUGAGGAUCACCCAUGUUGUA [theeternabot_exclusion_MS2_Trp_A_27] | 0.0108 |  | 0.0193 | 0.0159 |  |
| AUAAGUAUGUUUUCGUGUUUUAUUACAGAUACCAGACUAUACGUUGUCCCUUGGCAGCUGGAUUACAUGAGGAUCACCCAUGUUG [#26 Exclusion-TheophyllineA] | 0.0199 |  | 0.032 |  | 0.0231 |
| AGCGUGCAUCGGAAAACGAUGUACGCAAAUCGAGGACCGGUACGGCCGCCACUCGUCCUCAACAUGAGGAUCACCCAUGUAAUAA [Mat - Exclusion - Trytophan A - D10] | 0.022 |  | 0.0248 | 0.024 |  |
| ACAUGAGGAUCACCCAUGUACAUCACCCGACGAGGACCGGUACGGCCGCCACUCGGGUAUAUAUAUACAUCGGGUGAUUUUACGU [#22 Tryptophan A Same State] | 0.0274 |  | 0.0574 | 0.0641 |  |
| CGGCCCUCACUUGAGGAUCACCCAAGUGAUACCAGCCUGGAAACAGGCCCUUGGCAGCACUAGGUCAUCAAAGAUGACCAAGCCG [TheoAX 28 #OpenEnded #AlternativeMS2] | 0.0148 | 0.0128 | 0.026 | 0.146 | 0.0134 |
| AUUGACAUGAGGAUCACCCAUGUAUCCGAAGGAGCGGCAGAUGUGCCAGGUAGGUCGCGGGUGAAAGAGACAUCGUAGGGUGUCG [Same State - Arginine A / B [only NuPack]] | 0.0739 | 0.256 | 0.207 | 0.469 | 0.229 |
| CGGCCCUCACACGAGGAUCACCCGUGUGAUACCAGCCUGGAAACAGGCCCUUGGCAGCACAAGGUCAUCAAAGAUGACCAAGCCG [TheoAX 22 #SwitchBubble] | 0.00952 | 0.0119 | 0.018 | 0.0318 | 0.0126 |
| CUACAUUUGUAGAAACCGGUCAACAUUAUUCGAGGACCGGUACGGCCGCCACUCGUAUAAUUUAAUACAUGAGGAUCACCCAUGU [Tryptophan A 5] | 0.0161 |  | 0.0173 | 0.0169 |  |
| AAUGUGAAGGCGGCCGCCACUGAUAAUAGACAUGAGGAUCACCCAUGUAUAAAUCCUCAAUAAGACAGGACCGGGCCAUCUACGU [#25 Exclusion Tryptophan B] | 0.059 |  | 0.134 | 0.122 |  |
| CCAUGCAGGUCGGCCGCCACUACACACAUGAGGAUCACCCAUGUAGUUACUGGGUGAAGUGGCAGUAGGACCGGGACCUGCACAU [Brourdmod19] | 0.0947 |  | 0.326 | 0.541 |  |
| AAUGUAUUCCACAUGAGGAUCACCCAUGUGCGAGGACCGGUACGGCCGCCACUCGGUGUUGGGAUCUGUUCUGAAUACAUUAAUG [XTryp A #23] | 0.0308 |  | 0.0375 | 0.0403 |  |
| ACAUGAGGAUCACCCAUGUAACAACGGGAAGGAGCGCCAAACAAGGCAGGUAGGUCGCCCACAUGAGGAUCACCCAUGUGUUGGG [Exclusion Arginine A GF 27] | 0.0307 | 0.03 | 0.0407 | 0.0391 | 0.0288 |
